Changes are numbered by the printed parent chain. Numbers in names are those of the source.
T1: FLAG-tagged human APRIL (human, UniProt O75888 105-250, limits assumed)
T1 construct: also called FLAG-tagged APRIL; FLAG-APRIL; not shown: FLAG tag
T1 sequence (looked up): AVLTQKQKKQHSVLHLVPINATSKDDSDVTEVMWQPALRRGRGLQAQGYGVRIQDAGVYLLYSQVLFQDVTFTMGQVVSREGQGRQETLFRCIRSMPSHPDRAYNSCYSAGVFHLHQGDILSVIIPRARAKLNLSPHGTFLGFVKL

B1: VH14_1C.VL15 (antibody, human IgG4, V domains shown)
VH: QVQLVQSGAEVKKPGASVKVSCKASGYTFTSYVMHWVRQAPGQGLEWMGYINPYNDAPKYNEKFKGRVTITSDTSASTAYMELSSLRSDDTAVYYCARGLGYALYYAMDYWGQGTTVTVSS
VL: DIVMTQSPSTLSASVGDRVTITCKASQNVGNNVAWYQQKPGKAPKLLISSASNRDSGVPSRFSGSGSGTEFTLTISSLQPDDFATYFCQQYNIYPFTFGQGTKLEIK
notes: VH14_1 with M70I; Rest is human IgG4 (S241P, Kabat) and human kappa; also called 14_1C.15
B2: VH14_1D.VL15 (antibody, human IgG4, V domains shown)
VH: B1 VH with I70M, T74K
VL: B1 VL
notes: VH14_1 with T74K; Rest is human IgG4 (S241P, Kabat) and human kappa; also called 14_1D.15
B3: VH14_1G.VL15 (antibody, human IgG4 S228P, kappa, V domains shown)
VH: B1 VH with R67K, V68A, I70M
VL: DIVMTQSPSTLSASVGDRVTITCKASQNVGNNVAWYQQKPGKAPKLLISSASNRDSGVPSRFSGSGSGTEFTLTISSLQPDDFATYFCQQYNIYPFTFGQGTKLEIKR
notes: VH14_1 with R67K and V68A; Humanized IgG4 (S241P, Kabat) with human kappa; also called 14_1G.15; 14_1 G.15
B4: VH14_1E.VL15 (antibody, human IgG4, V domains shown)
VH: B1 VH with Q1E, I70M
VL: B1 VL
notes: VH14_1 with Q1E; Rest is human IgG4 (S241P, Kabat) and human kappa; also called 14_1E.15
B5: VH14.VL11 (combination of VH14 with VL11) (antibody, human IgG4, V domains shown)
VH: B1 VH with I70M, S72R
VL: DIVMTQSQKFMPTSVGDRVSVTCKASQNVGNNVAWYQQKPGQSPKALIYSASNRDSGVPDRFTGSGSGTDFTLTITNVQSEDLAEYFCQQYNIYPFTFGAGTKLELK
notes: Human IgG4 (S241P) / human kappa; Member of the group 'combinations of VH11-VH14 with VL10-VL14'
B6: VH13.VL11 (combination of VH13 with VL11) (antibody, human IgG4, V domains shown)
VH: B1 VH with I70M, S72R, A76T, A79V, D89E, T116M
VL: B5 VL
notes: as for B5
B7: VH11.VL14 (combination of VH11 with VL14) (antibody, human IgG4, V domains shown)
VH: B1 VH with G44R, S72R, D89E
VL: B5 VL with V3L, F10I, E105D
notes: as for B5
B8: VH13.VL14 (combination of VH13 with VL14) (antibody, human IgG4, V domains shown)
VH: B1 VH with I70M, S72R, A76T, A79V, D89E, T116M
VL: B5 VL with V3L, F10I, E105D
notes: as for B5
B9: VH14.VL14 (combination of VH14 with VL14) (antibody, human IgG4, V domains shown)
VH: B1 VH with I70M, S72R
VL: B5 VL with V3L, F10I, E105D
notes: as for B5
B10: VH12.VL14 (combination of VH12 with VL14) (antibody, human IgG4, V domains shown)
VH: B1 VH with I70M, S72R, A76I, S85R
VL: B5 VL with V3L, F10I, E105D
notes: as for B5
B11: VH12.VL11 (combination of VH12 with VL11) (antibody, human IgG4, V domains shown)
VH: B1 VH with I70M, S72R, A76I, S85R
VL: B5 VL
notes: as for B5
B12: VH11.VL11 (combination of VH11 with VL11) (antibody, human IgG4, V domains shown)
VH: B1 VH with G44R, S72R, D89E
VL: B5 VL
notes: as for B5

These binders were tested against T1, FLAG-tagged human APRIL (assay: FLAG-APRIL ELISA after 10 min at 70 °C, antibody at 0.316 µg/ml).

Row | % residual binding after heat treatment (room temperature = 100%) [%] | Binder
1 | 59.1 | B1
2 | 45.6 | B2
3 | 23.8 | B3
4 | 43.3 | B4

These binders were tested against T1, FLAG-tagged human APRIL (assay: FLAG-APRIL ELISA after 10 min at 65 °C, antibody at 0.316 µg/ml).
Method: (§1) The plasmids encoding the VH and VL constructs were mixed in a 1:3 ratio (4 μg in total) and transiently expressed by transfection into HEK293T human embryonic kidney cells (HEK293T/17, ATCC-CRL-11268), using Lipofectamine 2000 transfection reagent (Invitrogen) following the manufacturer's instructions. Cell supernatants were harvested after 5 days and tested for expression of antibody and binding to APRIL using an enzyme-linked immuno assay (ELISA). In these ELISAs, all incubation steps were followed by a wash step with PBST (PBS with 0.01% Tween 20). Maxisorb 96-wells plates (Nunc) were coated with 0.5 μg/ml anti-FLAG (Sigma) or anti-IgG4 (Jackson laboratories) and incubated overnight at 4° C. Subsequently the anti-FLAG coated 96-wells plates were incubated with FLAG-tagged human APRIL for 1 hour at room temperature. Next, supernatants and dilutions thereof were incubated for 1 hour, which was followed by an incubation of 1 hour with mouse anti-human IgG HRP-conjugate (Southern Biotechnology).
(§2) To determine the effect of humanization on the stability of the antibodies, humanized antibodies were exposed to a range of temperatures for 10 minutes. Purified antibodies were diluted to 3.16 μg/ml and dilutions thereof in PBS. Next, these solutions were exposed to 65° C. or 70° C. and residual binding after heat treatment of the antibodies was measured using the FLAG-tagged APRIL ELISA assay as described before (see Table 6).
(§3) In addition, the stability of the substituted humanized antibodies was improved as determined using thermostability studies as described in Example 3 (see Table 9).

Row | % residual binding after heat treatment (room temperature = 100%) [%] | Binder
5 | 59.1 | B1
6 | 49.4 | B2
7 | 34.2 | B3
8 | 52 | B4

The binders below were run against T1, FLAG-tagged human APRIL (assay: FLAG-APRIL ELISA after 10 min at 65 °C, antibody at 3.16 µg/ml).
Method: as §1, §2, §3

Row | % residual binding after heat treatment (room temperature = 100%) [%] | Binder
9 | 86.3 | B1
10 | 75.3 | B2
11 | 94.5 | B3
12 | 82.3 | B4

These binders were tested against T1, FLAG-tagged human APRIL (assay: FLAG-APRIL ELISA after 10 min at 65 °C, antibody at 1 µg/ml).
Method: as §1, §2, §3

Row | % residual binding after heat treatment (room temperature = 100%) [%] | Binder
13 | 44.7 | B1
14 | 39.8 | B2
15 | 31.3 | B3
16 | 39.7 | B4

These binders were tested against T1, FLAG-tagged human APRIL (assay: FLAG-APRIL ELISA after 10 min at 70 °C, antibody at 3.16 µg/ml).

Row | % residual binding after heat treatment (room temperature = 100%) [%] | Binder
17 | 99.4 | B1
18 | 84.3 | B2
19 | 78.2 | B3
20 | 78.8 | B4

These binders were tested against T1, FLAG-tagged human APRIL (assay: ELISA on FLAG-tagged human APRIL captured by anti-FLAG).
Method: as §1
Immunoreactivity was visualized with 100 μl TMB Stabilized Chromagen (Invitrogen). Reactions were stopped with 100 μl 0.5 M H2504 and absorbances were measured at 450 and 620 nm.

Row | binding result | Binder
21 | no binding | B5
22 | no binding | B6
23 | no binding | B7
24 | no binding | B8
25 | no binding | B9
26 | no binding | B10
27 | no binding | B11
28 | no binding | B12

These binders were tested against T1, FLAG-tagged human APRIL (assay: competition ELISA: antibody premixed with FLAG-tagged APRIL, added to coated Fc-BCMA, anti-FLAG HRP).
Method: A subset of humanized antibodies described above was selected for further analyses. Again, plasmids encoding the VH and VL constructs were mixed in a 1:3 ratio (32 μg) and transiently expressed by transfection into (8*10⁶) HEK293T human embryonic kidney cells (HEK293T), using Lipofectamine 2000 transfection reagent (Invitrogen) according to the manufacturer's instructions. Supernatants were harvested (10 ml) and antibodies were purified using MabSelect Sure Protein A resin according to the manufacturer's instructions (GE Healthcare). Buffer was exchanged for PBS using Zeba desalting columns (Thermo Scientific). The concentration of purified antibodies was determined based on OD280 (Nanodrop ND-1000). The binding of the purified antibodies to APRIL was established using the above described APRIL ELISA. The blocking capability of the humanized antibodies with BCMA and TACI receptors, was tested in a competition ELISA. In these ELISAs, all incubation steps were followed by a wash step with PBST (PBS with 0.01% Tween 20). Maxisorb 96-wells plates (Nunc) were coated with 0.5 μg/ml Fc-BCMA (R&D Systems) or Fc-TACI (R&D Systems) and incubated overnight at 4° C. Next, humanized antibodies and dilutions thereof were incubated, premixed with FLAG-tagged APRIL, for 1 hour, which was followed by an incubation of 1 hour with anti-FLAG HRP-conjugate (Sigma). Immunoreactivity was visualized with 100 μl TMB Stabilized Chromagen (Invitrogen). Reactions were stopped with 100 μl 0.5 M H2504 and absorbances were measured at 450 and 620 nm. Calculated EC₅₀ and IC₅₀ representing the concentration at which 50% of the total binding signal or blocking is observed are represented in Table 5.
The antibodies were tested for binding, blockade, and stability as described before.

Row | IC50 [nM] | Binder
29 | 5.26 | B1
30 | 0.96 | B2
31 | 1.35 | B3
32 | 1.74 | B4

The binders below were run against T1, FLAG-tagged human APRIL (assay: FLAG-APRIL ELISA after 10 min at 70 °C, antibody at 1 µg/ml).

Row | % residual binding after heat treatment (room temperature = 100%) [%] | Binder
33 | 43.8 | B1
34 | 32.7 | B2
35 | 16.9 | B3
36 | 28 | B4

These binders were tested against T1, FLAG-tagged human APRIL (assay: ELISA: FLAG-tagged human APRIL captured on anti-FLAG plate, purified antibody titrated).

Row | EC50 [nM] | Binder
37 | 7.04 | B1
38 | 1.95 | B2
39 | 0.78 | B3
40 | 2.67 | B4
